In patent publication US20070123465A1 (IPF PHARMACEUTICALS, published 2007):
Square brackets hold non-standard residues; d marks the D form. Ends that are not written are not given here. miniPEG = PEG spacer between peptide and cysteine; dTic = O=C(O)[C@H]1Cc2ccccc2CN1; NMeL = CN[C@@H](CC(C)C)C(=O)O

target: T1, fusion peptide of HIV gp41 (HIV-1 strain NL4-3) (HIV-1 strain NL4-3); test: cell-based or functional assay

Row | Binder | IC50, inhibition of HIV infection, HIV strain NL4-3 [nM]
1 | LEAIPCSIPPEFLFGKPFVF (not fully specified) [VIRIP (virus inhibiting peptide)] | 15000

target: T1, fusion peptide of HIV gp41 (HIV-1 …); test: cell-based or functional assay; remark: another data set of the same source

Row | Binder | IC50 NL4-3 [nM], anti-HIV activity (infection of P4-CCR5 indicator cells, beta-galactosidase reporter) [nM]
2 | LEAIPMCIPPEFLFGKPFVF (also: homodimer via intermolecular disulfide between Cys7 of the two chains) [VIR-577] | 3270
3 | LEAIPMSIPPEFLFGKPFVF-{miniPEG-Cys-NH2} (also: homodimer disulfide bonded through the C-terminal cysteine) [VIR-673] | 664
4 | [NMeL]EDIPCSIPPEFLFGKPFVF (also: homodimer via intermolecular disulfide between Cys6 of the two chains) [VIR-717] | 635
5 | [NMeL]EAIPCSIPPEFLFGKPFVF (also: homodimer via intermolecular disulfide between Cys6 of the two chains) [VIR-712] | 195
6 | LEAIPCGIP[dP]EV[dTic]FNKPFVF (also: homodimer via intermolecular disulfide Cys6-Cys6) [VIR-706] | 74
7 | LEKIPCSIP[dP]EVAFNKPFVF (also: homodimer via intermolecular disulfide Cys6-Cys6) [VIR-705] | 484
8 | LEAIPMSIPPEFLFGKPFVFKG (also: homodimer: C-termini linked to both amino groups of a C-terminal lysine core -K-G) [VIR-574] | 3080
9 | [NMeL]EKIPCSIPPEFLFGKPFVF (also: homodimer via intermolecular disulfide between Cys6 of the two chains) [VIR-716] | 182
